Laboratory results reported in PMC4704858 (Science (New York, N.Y.), 2015).

Target: the molecule itself
Assay: crystal structure

B1: MvINS, an Insig homolog from Mycobacterium vanbaalenii PYR-1 (wild type) (natural protein)
chain: MRLRISEAVVLFLLGAVAALIGDHSHVVTGTTVYHTDAVPFVWSSPFWFPILVGAATASLAELRLHLPAPRDGVTARQALGGVAAVVGTYVTTALVHAFPVVPVTALVCAAAAITWCVLGDGPGAACGVVIAVIGPAVEIALVQLGVFAYHPDSDGLFGVAPFLAPLYFAFGVVAALLGELAVARRPQLGPPVCDTVSRGPGAG
- stoichiometry N: 3
